Results on 1 molecule are retold here after patent US20090142281A1, “Composition Comprising A Coupled Enzyme System” (priority 2005, published 2009).

Data set [1] can be described thus: In gel overlay activity assay (PMS/NBT) using sorbitol as substrate. Type of data set: biochemical. The note with it: native gel.
Text: b) In gel overlay activity assay (PMS/NBT) using sorbitol as substrate.
The cell lysates were fractionated on a native gel that was further tested in an in-gel overlay activity assay using sorbitol as the substrate and an assay based on the PMS mediated reduction of NBT. […] The PMS/NBT is a diagnostic assay for flavoproteins where PMS=phenazine methosulfate is a redox mediator which is reduced by reduced FAD.
For data set [2] the following is noted: cited from earlier work.

B1: sorbitol oxidase from Streptomyces species H-7775: sorbitol oxidase of Streptomyces sp. H-7775, SEQ ID NO 1, 420 amino acids (protein)
chain: MTPAEKNWAGNITFGAKRLCVPRSVRELRETVAASGAVRPLGTRHSFNTVADTSGDHVSLAGLPRVVDIDVPGRAVSLSAGLRFGEFAAELHARGLALANLGSLPHISVAGAVATGTHGSGVGNRSLAGAVRALSLVTADGETRTLRRTDEDFAGAVVSLGALGVVTSLELDLVPAFEVRQWVYEDLPEATLAARFDEVMSAAYSVSVFTDWRPGPVGQVWLKQRVGDEGARSVMPAEWLGARLADGPRHPVPGMPAGNCTAQQGVPGPWHERLPHFRMEFTPSNGDELQSEYFVARADAVAAYEALARLRDRIAPVLQVSELRTVAADDLWLSPAHGRDSVAFHFTWVPDAAAVAPVAGAIEEALAPFGARPHWGKVFSTAPEVLRTLYPRYADFEELVGRHDPEGTFRNAFLDRYFRR
modifications: Streptomyces sp. H7775
B1: in data set [1], the “activity towards sorbitol (stained band)” value is listed as “has activity towards sorbitol”. For the same molecule, in data set [2] (24 hours at 30° C.), the “pH range of stability” value is 7.5-10 pH. In addition, the optimum temperature in data set [2] (at pH 7.5) is 50 °C.
